Measured values: PMC7137648, “Molecular and Cellular Interactions of Scavenger Receptor SR-F1 With Complement C1q Provide Insights Into Its Role in the Clearance of Apoptotic Cells” (Frontiers in Immunology, 2020)

B1: SR-F1(20-421), recombinant soluble SR-F1 ectodomain (domain or fragment, human)
chain: SELDPKGQHVCVASSPSAELQCCAGWRQKDQECTIPICEGPDACQKDEVCVKPGLCRCKPGFFGAHCSSRCPGQYWGPDCRESCPCHPHGQCEPATGACQCQADRWGARCEFPCACGPHGRCDPATGVCHCEPGWWSSTCRRPCQCNTAAARCEQATGACVCKPGWWGRRCSFRCNCHGSPCEQDSGRCACRPGWWGPECQQQCECVRGRCSAASGECTCPPGFRGARCELPCPAGSHGVQCAHSCGRCKHNEPCSPDTGSCESCEPGWNGTQCQQPCLPGTFGESCEQQCPHCRHGEACEPDTGHCQRCDPGWLGPRCEDPCPTGTFGEDCGSTCPTCVQGSCDTVTGDCVCSAGYWGPSCNASCPAGFHGNNCSVPCECPEGLCHPVSGSCQPGSGSRDTLIK
modifications: N-linked glycans at Asn 289, 382 and 393
notes: scavenger receptor class F member 1 (SR-F1, SREC-I, SCARF1), human, extracellular domain with EGF-like repeats 1-10; Mass 49.1 kDa by MALDI-TOF (polypeptide 44.0 kDa plus N-glycans); also called SR-F1 extracellular domain; not shown: His8, C-terminal, kept
B2: recombinant human calreticulin (CRT) (natural protein, UniProt P27797 18-417, looked up)
chain: EPAVYFKEQFLDGDGWTSRWIESKHKSDFGKFVLSSGKFYGDEEKDKGLQTSQDARFYALSASFEPFSNKGQTLVVQFTVKHEQNIDCGGGYVKLFPNSLDQTDMHGDSEYNIMFGPDICGPGTKKVHVIFNYKGKNVLINKDIRCKDDEFTHLYTLIVRPDNTYEVKIDNSQVESGSLEDDWDFLPPKKIKDPDASKPEDWDERAKIDDPTDSKPEDWDKPEHIPDPDAKKPEDWDEEMDGEWEPPVIQNPEYKGEWKPRQIDNPDYKGTWIHPEIDNPEYSPDPSIYAYDNFGVLGLDLWQVKSGTIFDNFLITNDEAYAEEFGNETWGVTKAAEKQMKDKQDEEQRLKEEEEDKKRKEEEEAEDKEDDEDKDEDEEDEEDKEEDEEEDVPGQAKDEL
notes: calreticulin, human, recombinant; MW = 49,431 g/mol used for quantification; In the endocytosis assay the protein was labelled with Alexa Fluor 568 succinimidyl ester; also called rCRT; AF568-rCRT

What was measured:
Details in all cases: both partners purified
complement protein C1q [1] = biological target: T1, complement protein C1q (human, UniProt P02745 23-245; P02746 28-253; P02747 29-245); assay: SPR; SR-F1(20-421), SR-F1(20-353) or SR-F1(20-221) injected at five increasing concentrations (multiple cycle kinetics) over covalently immobilized C1q (about 16,000 RU, CM5, amine coupling), BSA reference surface, TBS-Ca-P pH 7.4 (2 mM CaCl2), 20 μl/min, 25°C; global fit, 1:1 Langmuir model; apparent KD
T1 construct: complement C1q A-chain, human; C1q is 18 polypeptide chains assembled into 6 triple helices of A-chain, B-chain and C-chain (460 kDa); complement C1q B-chain, human; complement C1q C-chain, human; also called whole C1q; serum C1q; source: purified from human serum; copies: 6 + 6 + 6

complement protein C1q [2] = biological target: T1, complement protein C1q; assay: SPR; N-glycosylation site mutants of SR-F1(20-421) with C1q (Figures S5A-C), n = 2; which partner was immobilised is not told in the text shown; apparent affinity
[3] = biological target: B1; assay: SPR; CRT injected at five increasing concentrations (single cycle kinetics) over covalently immobilized SR-F1(20-421) (1,845 RU) in TBS-Ca-P at 30 μl/min, 25°C; global fit, two-state reaction model; apparent KD
[4] = biological target: B1; assay: SPR; reverse configuration: soluble SR-F1(20-421) over immobilized CRT (3,320 RU); apparent KD; data not shown
[5] = biological target: B2; assay: SPR; SR-F1(20-353) and SR-F1(20-221) fragments with CRT (Figure S7); which partner was immobilised is not told in the text shown

T1 sequence (P02745 23-245, chain 1 of 3): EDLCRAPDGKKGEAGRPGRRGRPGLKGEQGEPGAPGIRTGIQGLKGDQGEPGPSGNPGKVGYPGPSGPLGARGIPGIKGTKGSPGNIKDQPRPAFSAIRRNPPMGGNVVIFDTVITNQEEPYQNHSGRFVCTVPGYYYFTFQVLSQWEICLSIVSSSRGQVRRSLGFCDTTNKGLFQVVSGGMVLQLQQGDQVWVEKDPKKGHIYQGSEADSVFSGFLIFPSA
T1 sequence (P02746 28-253, chain 2 of 3): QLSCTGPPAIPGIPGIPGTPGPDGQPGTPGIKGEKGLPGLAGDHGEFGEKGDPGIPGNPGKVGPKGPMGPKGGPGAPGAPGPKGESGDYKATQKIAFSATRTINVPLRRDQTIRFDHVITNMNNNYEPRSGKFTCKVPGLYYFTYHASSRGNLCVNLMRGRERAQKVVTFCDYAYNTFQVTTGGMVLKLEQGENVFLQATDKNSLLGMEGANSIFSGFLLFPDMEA
T1 sequence (P02747 29-245, chain 3 of 3): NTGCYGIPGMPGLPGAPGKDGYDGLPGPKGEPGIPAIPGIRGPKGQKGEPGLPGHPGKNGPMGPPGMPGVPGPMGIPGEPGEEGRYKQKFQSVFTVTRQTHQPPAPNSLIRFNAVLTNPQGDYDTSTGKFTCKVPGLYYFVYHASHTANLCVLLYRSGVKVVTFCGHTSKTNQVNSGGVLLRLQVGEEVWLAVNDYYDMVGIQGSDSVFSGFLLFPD

Row | Binder | Kd (complement protein C1q [1]) [nM] | koff (complement protein C1q [1]) [s⁻¹] | kon (complement protein C1q [1]) [M⁻¹ s⁻¹] | t1/2 (half-life of the complex, ln2/kd) (complement protein C1q [1]) [min] | Kd (complement protein C1q [2]) [nM] | Kd [3] [nM] | Kd [4] [nM] | binding result [5]
1 | B1 | 186 | 0.00126 | 6840 | 9.17 | – | – | – | –
2 | SR-F1(20-421) N393Q (domain or fragment, human, N-linked glycans on the two remaining sites (Asn 289, Asn 382), SR-F1 (SCARF1), human, ectodomain as m1 with Asn 393 replaced by Gln; also called SR-F1 N393Q; N393Q mutant) SELDPKGQHVCVASSPSAELQCCAGWRQKDQECTIPICEGPDACQKDEVCVKPGLCRCKPGFFGAHCSSRCPGQYWGPDCRESCPCHPHGQCEPATGACQCQADRWGARCEFPCACGPHGRCDPATGVCHCEPGWWSSTCRRPCQCNTAAARCEQATGACVCKPGWWGRRCSFRCNCHGSPCEQDSGRCACRPGWWGPECQQQCECVRGRCSAASGECTCPPGFRGARCELPCPAGSHGVQCAHSCGRCKHNEPCSPDTGSCESCEPGWNGTQCQQPCLPGTFGESCEQQCPHCRHGEACEPDTGHCQRCDPGWLGPRCEDPCPTGTFGEDCGSTCPTCVQGSCDTVTGDCVCSAGYWGPSCNASCPAGFHGNQCSVPCECPEGLCHPVSGSCQPGSGSRDTLIK | – | – | – | – | 589 ± 20 | – | – | –
3 | SR-F1(20-421) N382Q (domain or fragment, human, N-linked glycans on the two remaining sites (Asn 289, Asn 393), SR-F1 (SCARF1), human, ectodomain as m1 with Asn 382 replaced by Gln; also called SR-F1 N382Q; N382Q mutant) SELDPKGQHVCVASSPSAELQCCAGWRQKDQECTIPICEGPDACQKDEVCVKPGLCRCKPGFFGAHCSSRCPGQYWGPDCRESCPCHPHGQCEPATGACQCQADRWGARCEFPCACGPHGRCDPATGVCHCEPGWWSSTCRRPCQCNTAAARCEQATGACVCKPGWWGRRCSFRCNCHGSPCEQDSGRCACRPGWWGPECQQQCECVRGRCSAASGECTCPPGFRGARCELPCPAGSHGVQCAHSCGRCKHNEPCSPDTGSCESCEPGWNGTQCQQPCLPGTFGESCEQQCPHCRHGEACEPDTGHCQRCDPGWLGPRCEDPCPTGTFGEDCGSTCPTCVQGSCDTVTGDCVCSAGYWGPSCQASCPAGFHGNNCSVPCECPEGLCHPVSGSCQPGSGSRDTLIK | – | – | – | – | 604 | – | – | –
4 | B2 | – | – | – | – | – | 345 ± 8 | 770 | –
5 | SR-F1(20-353) (domain or fragment, human, N-linked glycan at Asn 289, SR-F1 (SCARF1), human, EGF-like repeats 1-8; kept here by the cloning as described; The Leu-Ile-Lys and 8 His tail is printed for the parent plasmid only; not shown: His8, C-terminal, kept) SELDPKGQHVCVASSPSAELQCCAGWRQKDQECTIPICEGPDACQKDEVCVKPGLCRCKPGFFGAHCSSRCPGQYWGPDCRESCPCHPHGQCEPATGACQCQADRWGARCEFPCACGPHGRCDPATGVCHCEPGWWSSTCRRPCQCNTAAARCEQATGACVCKPGWWGRRCSFRCNCHGSPCEQDSGRCACRPGWWGPECQQQCECVRGRCSAASGECTCPPGFRGARCELPCPAGSHGVQCAHSCGRCKHNEPCSPDTGSCESCEPGWNGTQCQQPCLPGTFGESCEQQCPHCRHGEACEPDTGHCQRCDPGWLGPRCEDPCPTGTFGEDCGSLIK | 32.4 | 0.00209 | 70000 | 5.52 | – | – | – | binds
6 | SR-F1(20-221) (domain or fragment, human, SR-F1 (SCARF1), human, EGF-like repeats 1-5, lacks EGF-like modules 6 to 10 and the three N-glycosylation sites; construct encodes the 221 first residues, named 20-221 as secreted protein; kept here by the cloning as described; The Leu-Ile-Lys and 8 His tail is printed for the parent plasmid only; also called SR-F1(1-221); SR-F(20-221); not shown: His8, C-terminal, kept) SELDPKGQHVCVASSPSAELQCCAGWRQKDQECTIPICEGPDACQKDEVCVKPGLCRCKPGFFGAHCSSRCPGQYWGPDCRESCPCHPHGQCEPATGACQCQADRWGARCEFPCACGPHGRCDPATGVCHCEPGWWSSTCRRPCQCNTAAARCEQATGACVCKPGWWGRRCSFRCNCHGSPCEQDSGRCACRPGWWGPECQQLIK | 17.7 | 0.00303 | 185000 | 3.82 | – | – | – | binds
